Results on 61 substances are retold here after US10280205B2, “Method for treating cancer with an activated T lymphocyte that selectively recognizes a cancer cell consisting of specific peptide” (immatics biotechnologies GmbH, priority 2015, dated 2019).

The target in this assay is HLA-A*02:01 (Homo sapiens, UniProt P04439, D140Y/D185E/D98H/E176V/E277Q/G131W/G231S/I119V/I121R/I166T/I218V/L300P/L318F/N151K/N90K/P208A/P217A/Q86G/Q94H/R138H/R169H/T345S). Briefly: MHC binding assay: UV-ligand exchange with beta2m ELISA (exchange yield). The conditions noted are these: binding to HLA-A*02:01, β2m ELISA. In a few lines: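 Exchange yield reflects how much β2m remains bound, measured by ELISA: streptavidin capture of 100-fold diluted monomers, HRP anti-β2m at 37° C. for 1 h, TMB read at 450 nm. Monomers come from UV cleavage of a conditional HLA-A*02:01 ligand in the presence of the candidate peptide.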
A general note: ELISA stands for enzyme-linked immunosorbent assay.
In the case of “393 (GLLDTQTSQVLTA; listed as Homo sapiens) [compound 393]”, the “Peptide exchange (MHC class I binding score, peptide exchange yield)” value (“Peptide exchange” for short) was ““++” (≥20% = ++)”.
On to “106 (LLYDAVHIVSV; listed as Homo sapiens) [compound 106]”, for which the “Peptide exchange” value was ““+++” (≥50 = +++)”.
For “87 (ALPEAPAPLLPHIT; listed as Homo sapiens) [compound 87]” the value was ““++” (≥20% = ++)”; for “88 (FLLVGDLMAV; listed as Homo sapiens) [compound 88]”, ““+++” (≥50 = +++)”.
With “525 (VLLEAGEGLVTI; listed as Homo sapiens) [compound 525]” the entry was ““+++” (≥50 = +++)”; with “305 (SIANFSEFYV; listed as Homo sapiens) [compound 305]”, ““++++” (≥75% = ++++)”.
“468 (YLRSVGDGETV; listed as Homo sapiens) [compound 468]”: the “Peptide exchange” value was ““+++” (≥50 = +++)”.
For “551 (KLYESLLPFA; listed as Homo sapiens) [compound 551]” the value was ““+++” (≥50 = +++)”; for “248 (FLFPNQYVDV; listed as Homo sapiens) [compound 248]”, ““+++” (≥50 = +++)”; for “121 (GVVDPRAISVL; listed as Homo sapiens) [compound 121]”, ““++” (≥20% = ++)”.
With “322 (TLMTSLPAL; listed as Homo sapiens) [compound 322]” the entry was ““+++” (≥50 = +++)”; with “127 (KIGDEPPKV; listed as Homo sapiens) [compound 127]”, ““++” (≥20% = ++)”.
With “114 (SLVGEPILQNV; listed as Homo sapiens) [compound 114]” the entry was ““++” (≥20% = ++)”; with “357 (SMHDLVLQV; listed as Homo sapiens) [compound 357]”, ““+++” (≥50 = +++)”.
With “256 (FLPPEHTIVYI; listed as Homo sapiens) [compound 256]”, the “Peptide exchange” value was ““+++” (≥50 = +++)”.
For “209 (KLIESKHEV; listed as Homo sapiens) [compound 209]” the value was ““++” (≥20% = ++)”.
Consider “151 (KILQQLVTL; listed as Homo sapiens) [compound 151]”, for which the “Peptide exchange” value is listed as ““+++” (≥50 = +++)”.
With “326 (FLPEALDFV; listed as Homo sapiens) [compound 326]” the entry was ““+++” (≥50 = +++)”; with “321 (GLFEDVTQPGILL; listed as Homo sapiens) [compound 321]”, ““++++” (≥75% = ++++)”.
In the case of “1 (SLMEPPAVLLL; listed as Homo sapiens) [compound 1]”, the “Peptide exchange” value is reported as ““+++” (≥50 = +++)”.
For “444 (GLLRDEALAEV; listed as Homo sapiens) [compound 444]” the value was ““+++” (≥50 = +++)”; for “71 (GILARIASV; listed as Homo sapiens) [compound 71]”, ““+++” (≥50 = +++)”; for “129 (GLLDGGVDILL; listed as Homo sapiens) [compound 129]”, ““+++” (≥50 = +++)”.
With “218 (SALEELVNV; listed as Homo sapiens) [compound 218]” the entry was ““++” (≥20% = ++)”; with “197 (ALGPEGGRV; listed as Homo sapiens) [compound 197]”, ““++” (≥20% = ++)”; with “157 (SLNDEVPEV; listed as Homo sapiens) [compound 157]”, ““++” (≥20% = ++)”.
With “29 (KMLGIPISNILMV; listed as Homo sapiens) [compound 29]” the entry was ““+++” (≥50 = +++)”.
In the case of “529 (LLADELITV; listed as Homo sapiens) [compound 529]”, the “Peptide exchange” value is listed as ““+++” (≥50 = +++)”.
As to “265 (LLFGGTKTV; listed as Homo sapiens) [compound 265]”, the “Peptide exchange” value is on record as ““++” (≥20% = ++)”.
With “264 (SLQEQLHSV; listed as Homo sapiens) [compound 264]” the entry was ““+++” (≥50 = +++)”; with “277 (LLPPLESLATV; listed as Homo sapiens) [compound 277]”, ““++” (≥20% = ++)”; with “620 (KLLNKIYEA; listed as Homo sapiens) [compound 620]”, ““++++” (≥75% = ++++)”.
With “582 (TLCDVILMV; listed as Homo sapiens) [compound 582]” the entry was ““+++” (≥50 = +++)”; with “120 (ALLGIPLTLV; listed as Homo sapiens) [compound 120]”, ““+++” (≥50 = +++)”.
With “144 (YIMEPSIFNTL; listed as Homo sapiens) [compound 144]” the entry was ““+++” (≥50 = +++)”; with “110 (FLSQVDFEL; listed as Homo sapiens) [compound 110]”, ““+++” (≥50 = +++)”.
Turning to “274 (SLLFSLFEA; listed as Homo sapiens) [compound 274]”, the “Peptide exchange” value is ““++” (≥20% = ++)”.
For “40 (TLLVKVFSV; listed as Homo sapiens) [compound 40]” the value was ““+++” (≥50 = +++)”; for “605 (KLYEAVPQL; listed as Homo sapiens) [compound 605]”, ““+++” (≥50 = +++)”.
With “258 (ELAERVPAI; listed as Homo sapiens) [compound 258]” the entry was ““++” (≥20% = ++)”; with “263 (LLVSNLDFGV; listed as Homo sapiens) [compound 263]”, ““+++” (≥50 = +++)”; with “408 (VLDDSIYLV; listed as Homo sapiens) [compound 408]”, ““++” (≥20% = ++)”.
For “348 (ILLDVKTRL; listed as Homo sapiens) [compound 348]” the value was ““++++” (≥75% = ++++)”.
For the substance “552 (GLLDLPFRVGV; listed as Homo sapiens) [compound 552]”, the “Peptide exchange” value is ““++++” (≥75% = ++++)”.
With “240 (ILLEQAFYL; listed as Homo sapiens) [compound 240]” the entry was ““+++” (≥50 = +++)”; with “98 (LIIDQADIYL; listed as Homo sapiens) [compound 98]”, ““+++” (≥50 = +++)”; with “234 (ALMEDTGRQML; listed as Homo sapiens) [compound 234]”, ““++” (≥20% = ++)”.
For “169 (NLPEYLPFV; listed as Homo sapiens) [compound 169]” the value was ““+++” (≥50 = +++)”.
With “462 (KLAKQPETV; listed as Homo sapiens) [compound 462]” the entry was ““+++” (≥50 = +++)”.
Take “530 (VMYADIGGMDI; listed as Homo sapiens) [compound 530]”: the “Peptide exchange” value is ““+++” (≥50 = +++)”.
For “503 (SLNHFTHSV; listed as Homo sapiens) [compound 503]” the value was ““+++” (≥50 = +++)”; for “601 (SAFPFPVTV; listed as Homo sapiens) [compound 601]”, ““+++” (≥50 = +++)”; for “587 (VMNDRLYAI; listed as Homo sapiens) [compound 587]”, ““+++” (≥50 = +++)”.
In the case of “477 (ALLPASGQIAL; listed as Homo sapiens) [compound 477]”, the “Peptide exchange” value is listed as ““+++” (≥50 = +++)”.
With “543 (GLLPTPITQQASL; listed as Homo sapiens) [compound 543]” the entry was ““+++” (≥50 = +++)”.
For “476 (ALMERTGYSMV; listed as Homo sapiens) [compound 476]” the value was ““+++” (≥50 = +++)”; for “231 (FLSPQQPPLLL; listed as Homo sapiens) [compound 231]”, ““++” (≥20% = ++)”; for “545 (LLADLLHNV; listed as Homo sapiens) [compound 545]”, ““+++” (≥50 = +++)”.
For “75 (GLLEVMVNL; listed as Homo sapiens) [compound 75]” the value was ““+++” (≥50 = +++)”; for “608 (SLLSVSHAL; listed as Homo sapiens) [compound 608]”, ““+++” (≥50 = +++)”.
Consider “546 (VMIAGKVAVV; listed as Homo sapiens) [compound 546]”, for which the “Peptide exchange” value is listed as ““+++” (≥50 = +++)”.
